{"source": "patent US20260275317A1", "about": "“CHIMERIC ENDOLYSINS WITH ACTIVITY AGAINST STREPTOCOCCI AND STAPHYLOCOCCI” (UNIVERSITEIT GENT, priority 2023, published 2026)", "key": {"[1]": {"test_system": "S. uberis, S. aureus, S. agalactiae and S. dysgalactiae", "assay": "2 h time killing assay in PBS and UHT-milk, relative in vitro scoring", "assay_type": "cell-based", "conditions": "0.25 μM", "description": "Concerning the time killing assay, an overnight bacterial culture was diluted 1:10 for S. uberis, S. agalactiae-& dysgalactiae or 1:100 for S. aureus in PBS or UHT-pasteurized whole cow's milk. A volume of 10 μL thereof was combined with an equal amount of chimeric endolysin in PBS (or only PBS as negative control) in triplicate and incubated in a covered 96-well microtiter plate at 37° C. for 2 h. […] Finally, these fractions were serially diluted 1:10 in PBS. 5 μL of each fraction was spotted on TSA or BHI-agar and incubated overnight at 37° C. The following day, colony forming units (CFU) were counted and converted to CFU/mL to calculate logarithmic reductions in comparison with the negative control. The relative scores were calculated by dividing the observed logarithmic reduction for each endolysin by the maximal reduction observed for that specific condition and strain. Next, this value was divided by the number of conditions and strains tested (i.e., 8=4 bacterial strains×2 conditions (PBS/UHT-milk)). As such, the best performing candidate in each individual assay received a score of 0.125 (=(1/1)/8). […] Turbidity reduction assays were performed by combining 100 μL of overnight grown bacterial cells with an equal volume of purified enzyme at the desired concentration. Bacterial cells were washed with PBS and resuspended in a 1:1 ratio with enzyme to an OD600 of approximately 1.0. Next, the OD600 was measured using a Tecan infinite 200 PRO plate reader (Tecan, Switzerland) every 15 seconds at 37° C., shaking the 96-well plate between each measurement.\nStationary phase S. uberis 0140J or S. aureus N305 and one randomly chosen clinical isolate of S. uberis, S. aureus, S. agalactiae and S. dysgalactiae were challenged with a final concentration of 0.25 μM endolysin in a 2 h time killing assay (TKA) in both phosphate buffered saline (PBS) and ultra-high temperature pasteurized whole cow's milk (UHT-milk)."}, "[2]": {"test_system": "intracellular S. uberis GCC ST-5 in MAC-T and PS cells", "assay": "Intracellular killing assay in bovine mammary epithelial cell lines", "assay_type": "cell-based, Streptococcus uberis", "conditions": "2.5 μM, 1 h", "description": "Cells were seeded in a 24-well plate at 50.000 cells/well with the addition of 25 μg/mL calf skin collagen type I (dissolved in 0.1 M acetic acid) (Sigma-Aldrich, USA) and grown to 100% confluency. Next, medium was removed and cells were washed 3× with dPBS to remove residual P/S. An overnight bacterial culture was washed with dPBS, dissolved in an equal volume of prewarmed cell culture media without the addition of P/S and 0.5 mL thereof was incubated with the cells in every well during 3 h at 37° C. to allow intracellular invasion. Afterwards, this suspension was removed, serially diluted and plated as previously described to determine the amount of extracellular bacteria. Cells were again washed 3× with dPBS and 0.5 mL of prewarmed cell culture media was added with the addition of 200 μg/ml gentamycin (Sigma-Aldrich, USA) and incubated during 3 h at 37° C. to kill remaining extracellular and adhered bacteria. Next, this suspension was likewise removed and plated to check if killing of the extracellular and adhered bacteria was successful. Cells were again 3× washed with dPBS and 2.5 µM of prewarmed NC5 in cell culture media without P/S (buffer exchange performed at 4-8° C. by means of a Pierce™ Protein Concentrator PES 10 kDa MWCO) was added during 1 h to eradicate the intracellular bacteria. […]"}, "MAC-T cells": {"test_system": "MAC-T cells", "assay_type": "cell-based, bovine", "conditions": "2.5 μM", "description": "MAC-T cells were seeded in a 6-well plate at 300.000 cells/well and grown to 100% confluency. Next, cell culture medium was replaced by prewarmed NC5 in DMEM (buffer exchange performed at 4-8° C. by means of a Pierce™ Protein Concentrator PES 10 kDa MWCO) and allowed to incubate during 1 h at 37° C. and 5.0% CO2. DMEM alone served as the negative control. Following incubation, the supernatant was aspirated and cells were washed 5× with prewarmed dPBS. Cells were then harvested, pelleted and washed as previously described, followed by lysis in ice-cold 0.1% triton X-100 (Sigma-Aldrich, USA) in dPBS. The cell lysates were denaturized and subjected to SDS-PAGE before blotting to a nitrocellulose membrane (Novolab, Belgium). The membrane was thereafter incubated during 1 h in dPBSM5 as blocking buffer. Subsequently, the primary antibody being mouse monoclonal IgG anti-HIS5 (Sigma-Aldrich, USA) was added to the blocking buffer at 1:2000 and allowed to incubate under the same conditions for another hour. The nitrocellulose membrane was then washed 3× with dPBST and incubated during 30 min with the secondary antibody being HRP conjugated goat monoclonal anti-mouse IgG (ImTec Diagnostics, Belgium) diluted 1:1000 in dPBST. […]"}}}
{"molecule": "NC5: chimeric endolysin SEQ ID NO: 17; HIV-1 TAT + PlySs2 CHAP + Ply1081 CW_7 + PlySs9 amidase_3 (protein) MYGRKKRRQRRRGATTVNEALNNVRAQVGSGVSVGNGECYALASWYERMISPDATVGLGAGVGWVSGAIGDTISAKNIGSSYNWQANGWTVSTSGPFKAGQIVTLGATPGNPYGHVVIVEAVDGDRLTILEQNYGGKRYPVRNYYSAASYRQQVVHYITPPGTVAQSAPNLAGAGIDQLVQETLAGKYGNGEQRKAALGSQYQAVMAVINGKATAPKKTVDQLAQEVIQGKHGNGEDRKKSLGPDYDAVQKRVTEILKGSPSGNIPKTPSDAPKSEVVNSSTEPKTEETGANGKATDTKITKGSGKHLVICGHGQGRTGYDPGAVNAKLGITEAGKVRELSKLMSKYSGQQIDFITEQNVYDYRSITSIGKGYDSITELHFNAFNGSAKGTEVLIQSSLEADKEDMAILSLLSRYFQNRGIKKVDWLYNANQAASRGYTYRLVEIAFIDNEQDMAIFENKKEDIAKGLVSAITGVEVKTIVPSPPSSTVGSSGTPSKSIYLVGDSLRVLPHATHYQTGQKIANWVKGRTYKILQVKNVHQSNSKRAYLLDGIKSWVLEQDVEGTTKGHSKYHHHHHH", "values": [{"measurement": "ranking by cumulative relative in vitro score", "setting": "[1]", "result": "overall best performing candidates"}, {"measurement": "Δ Log10 reduction of intracellular S. uberis", "setting": "[2]; infected MAC-T", "result": "1.62±0.05", "unit": "Log10"}, {"measurement": "Δ Log10 reduction of intracellular S. uberis", "setting": "[2]; infected PS, remaining bacteria at or below detection limit 200 CFU/mL", "result": "at least 2.12±0.08 Log10"}, {"measurement": "stability after incubation with MAC-T cells (SDS-PAGE of supernatant)", "setting": "MAC-T cells", "result": "neither disintegrated nor precipitated after incubation with MAC-T cells"}]}
